Results on three molecules are retold here after article PMC7969030.

Data set [1] addresses T1, Kuwt (Bacillus subtilis, UniProt O34859 1-311).
T1 sequence: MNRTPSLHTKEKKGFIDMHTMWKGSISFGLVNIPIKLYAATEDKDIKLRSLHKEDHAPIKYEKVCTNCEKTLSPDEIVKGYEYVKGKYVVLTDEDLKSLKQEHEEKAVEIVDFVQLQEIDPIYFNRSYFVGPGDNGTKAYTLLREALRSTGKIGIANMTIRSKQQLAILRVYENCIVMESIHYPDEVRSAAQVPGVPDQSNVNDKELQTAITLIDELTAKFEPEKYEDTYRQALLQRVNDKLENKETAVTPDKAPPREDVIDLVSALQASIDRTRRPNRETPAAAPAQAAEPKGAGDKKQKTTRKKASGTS
The data set can be described thus: SPR. On the technique in general: In SPR one partner is held on a chip, and binding of the other changes the refractive index at the surface.

Data set [2] addresses T2, Kucore (Bacillus subtilis, UniProt O34859 1-253).
T2 sequence: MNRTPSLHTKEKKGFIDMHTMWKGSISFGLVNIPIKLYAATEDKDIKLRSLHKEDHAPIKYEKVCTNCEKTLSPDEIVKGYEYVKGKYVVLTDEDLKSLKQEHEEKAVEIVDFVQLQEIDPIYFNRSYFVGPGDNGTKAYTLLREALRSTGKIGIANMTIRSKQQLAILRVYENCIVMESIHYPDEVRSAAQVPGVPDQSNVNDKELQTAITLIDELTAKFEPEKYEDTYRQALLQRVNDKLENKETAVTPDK
In words: SPR.

In a further data set the target is T3, Kuwt;LigD (Bacillus subtilis;Bacillus subtilis, UniProt O34859;O34398 1-311;1-611, |).
T3 sequence 1: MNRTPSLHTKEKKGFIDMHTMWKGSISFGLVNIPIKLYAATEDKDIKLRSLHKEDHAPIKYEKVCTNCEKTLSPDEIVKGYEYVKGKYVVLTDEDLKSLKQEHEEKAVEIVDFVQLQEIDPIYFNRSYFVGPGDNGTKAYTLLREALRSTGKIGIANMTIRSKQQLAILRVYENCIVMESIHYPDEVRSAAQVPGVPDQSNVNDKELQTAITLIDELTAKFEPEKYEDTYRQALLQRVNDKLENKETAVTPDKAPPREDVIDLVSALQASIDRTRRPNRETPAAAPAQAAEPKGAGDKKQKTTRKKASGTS
T3 sequence 2: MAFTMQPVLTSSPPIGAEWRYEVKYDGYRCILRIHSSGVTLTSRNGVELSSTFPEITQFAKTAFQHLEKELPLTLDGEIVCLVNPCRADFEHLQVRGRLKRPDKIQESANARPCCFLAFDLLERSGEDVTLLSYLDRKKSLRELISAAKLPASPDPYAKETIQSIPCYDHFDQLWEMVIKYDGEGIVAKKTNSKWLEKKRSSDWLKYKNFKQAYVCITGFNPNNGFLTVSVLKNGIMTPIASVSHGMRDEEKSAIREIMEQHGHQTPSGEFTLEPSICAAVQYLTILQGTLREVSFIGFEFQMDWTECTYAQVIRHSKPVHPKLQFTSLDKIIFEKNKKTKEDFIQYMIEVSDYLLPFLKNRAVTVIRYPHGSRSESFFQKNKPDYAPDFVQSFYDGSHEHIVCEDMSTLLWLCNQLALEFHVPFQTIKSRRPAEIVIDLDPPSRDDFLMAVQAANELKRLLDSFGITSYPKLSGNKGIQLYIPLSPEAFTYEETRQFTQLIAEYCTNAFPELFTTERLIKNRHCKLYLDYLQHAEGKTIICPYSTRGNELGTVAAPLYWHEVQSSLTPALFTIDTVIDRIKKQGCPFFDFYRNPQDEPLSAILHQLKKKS
In words: EMSA. Background: A gel shift assay detects complexes by their altered migration in electrophoresis.

In data set [3] the target is T1, Kuwt. The data set can be described thus: EMSA.
The target of data set [4] is T2, Kucore. The data set can be described thus: EMSA.

B1: 50 bp blunt DNA (SPR) (dsDNA)
DNA 1: CCTCTAGACCTGTACTACTCGAGAGATCGATCGACAGACGATGACTTAGC
DNA 2: GCTAAGTCATCGTCTGTCGATCGATCTCTCGAGTAGTACAGGTCTAGAGG
modifications: 5' biotin on one strand
A word on the Kd: it is the concentration at which binding is half-saturated. For B1, the Kd with Kuwt [1] was 6.7 nM; with Kucore [2] it was 9.3 nM.

B2: 50 bp blunt DNA (EMSA, photobleaching) (dsDNA)
DNA 1: CCTCTAGACCTGTACTACTCGAGAGATCGATCGACAGACGATGACTTAGC
DNA 2: GCTAAGTCATCGTCTGTCGATCGATCTCTCGAGTAGTACAGGTCTAGAGG
modifications: 5' 6-FAM on one strand (EMSA)
As for B2, the binding result with Kuwt;LigD is “binds”.

B3: 50 bp DNA with 4 nt overhang (dsDNA)
DNA 1: CCTCTAGACCTGTACTACTCGAGAGATCGATCGACAGACGATGACTTAGC
DNA 2: CTGAGCTAAGTCATCGTCTGTCGATCGATCTCTCGAGTAGTACAGGTCTAGAGG
modifications: 5' 6-FAM on one strand
For B3, the binding result with Kuwt [3] and with Kucore [4] was “binds” throughout.
